# Laboratory results: the supplement of paper PMC10724198
# ± gives the standard deviation of the averaged measurements.
# System: Saccharomyces cerevisiae
# Assay: protein stability index of tFT-peptide fusion (C-terminal peptide) (PSI (0-1 scale)); higher = more stable (slower turnover)
# Conditions: genetic background: wild type; temperature: 30 C
# Method: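 MPS profiling in S. cerevisiae of the tFT-X12 degron library: putative degron peptides plus stable controls, 12 aa, fused to the C-terminus of a sfGFP-mCherry timer. Cells are FACS-sorted into 8 mCherry/sfGFP bins and deep-sequenced. PSI runs from 0 (unstable) to 1 (stable). Backgrounds are wild type, das1Δ and doa10Δ at 30 °C, and wild type, das1Δ, cdc34-1 and cdc53-1 at 37 °C; 2-3 technical replicates each.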
# 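Note: PSI is a weighted mean of sequencing reads over stability bins, variants kept only with over 10 reads, mCherry proximal and sfGFP distal, peptide attached via GGGS linker.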
row,Sequence,protein stability index
1,ISVSVVFFVLRF,0.279 ± 0.019
2,IYPPVSVTNLLV,0.255 ± 0.032
3,KAEKNSKKTSTE,0.649 ± 0.033
4,KALSSSYFGTRL,0.6755 ± 0.0058
5,KCEKGLYCCIAF,0.534 ± 0.027
6,KEKGVTKIRISS,0.195 ± 0.037
7,KEKKKTKHNKIG,0.155 ± 0.032
8,KIVNNTKKNKCH,0.195 ± 0.046
9,KLALVYLLIRGL,0.0862 ± 0.02
10,KLLGVLFVLFPG,0.336 ± 0.026
11,KLRIVYAKVVCS,0.274 ± 0.015
12,KSEKTYTYQVIQ,0.37 ± 0.027
13,KVALWRRGVLAA,0.161 ± 0.02
14,LCGYVGVVVCLV,0.209 ± 0.021
15,LCIRHFRLLELL,0.167 ± 0.016
16,LCSYSTIPLRLY,0.231 ± 0.021
17,LCWASLLIVYLP,0.278 ± 0.032
18,LEYCLATYLSAC,0.248 ± 0.016
19,LFFSFLFLATRC,0.193 ± 0.019
20,LFFVCSGVVFSF,0.384 ± 0.031
21,LFGFLCVVMCCG,0.4422 ± 0.00067
22,LFLFFFLPPLLF,0.366 ± 0.009
23,LFLSFLLLYFRP,0.313 ± 0.015
24,LFMRGEDEMFSV,0.672 ± 0.022
25,LFPLFTLIFVHL,0.115 ± 0.019
26,LFTRSIRNLKSL,0.291 ± 0.0074

row,Sequence,protein stability index
1,LFVFVISSSSFP,0.306 ± 0.025
2,LFWCCVGLSVWR,0.31 ± 0.016
3,LFWPPCYLFFCL,0.324 ± 0.027
4,LFWTLSKYLIIC,0.108 ± 0.013
5,LGFFIFSFLILK,0.124 ± 0.036
6,LGFHFFFTLIFF,0.305 ± 0.039
7,LGLLIFQWARVL,0.0808 ± 0.016
8,LGVVVGGVRGVG,0.46 ± 0.025
9,LHRLRFTLVQVS,0.163 ± 0.021
10,LIAPSACNLFLF,0.308 ± 0.018
11,LIRDLLYMAVLV,0.281 ± 0.039
12,LISRLVLVFVIP,0.272 ± 0.026
13,LIVCVKAITIVS,0.0194 ± 0.0031
14,LKCFLVLTFWFS,0.194 ± 0.027
15,LLHFVLYFLSCT,0.434 ± 0.01
16,LLHQSVHSHIPP,0.641 ± 0.024
17,LLILSLLVLSSR,0.229 ± 0.036
18,LLLCVVLVSVFG,0.102 ± 0.023
19,LLLFSFAALANF,0.283 ± 0.018
20,LLLFTPFYLLLR,0.188 ± 0.037
21,LLLPVFRFFFVN,0.109 ± 0.007
22,LLRFFPCFLGVN,0.425 ± 0.032
23,LLTAARAQLFAV,0.477 ± 0.019
24,LLVSVVFVSRFF,0.251 ± 0.035
25,LLWALGLVLVEG,0.204 ± 0.029
26,LNLACCWFVRCR,0.261 ± 0.021

row,Sequence,protein stability index
1,LNSSVLRLRFFV,0.098 ± 0.024
2,LPLCGLLLFLFF,0.42 ± 0.015
3,LPLQPPPPVCLP,0.644 ± 0.018
4,LPPFGLFLFVFI,0.285 ± 0.029
5,LPPSTFLLHFLL,0.232 ± 0.026
6,LPTGLKTFLIAF,0.405 ± 0.027
7,LPVPARPFPPSS,0.688 ± 0.021
8,LQSYVSRLVRLS,0.186 ± 0.036
9,LRFFLPFLLSLP,0.164 ± 0.022
10,LRFSLLRVGWLC,0.336 ± 0.037
11,LRGIVSVWILRA,0.148 ± 0.0039
12,LRLLSLIPPLSC,0.385 ± 0.026
13,LRSPCALVLLLI,0.237 ± 0.024
14,LSAVISLRIQLS,0.379 ± 0.04
15,LSFFICSFFFVL,0.361 ± 0.021
16,LSFLSLIFSICY,0.333 ± 0.037
17,LSGDIPWSFVPV,0.677 ± 0.031
18,LSIGCRCLWGWF,0.5967 ± 0.0059
19,LSLCPVHRLLVL,0.379 ± 0.034
20,LSLSPRLPRLVA,0.197 ± 0.023
21,LSRFGSTCPSGL,0.638 ± 0.012
22,LSRHLILFIVIR,0.174 ± 0.019
23,LSVYFSLSLCVS,0.399 ± 0.017
24,LTCTSTPMACRV,0.475 ± 0.013
25,LVCLPVGFFLMW,0.411 ± 0.013
26,LVCLVFVRSSLV,0.232 ± 0.038
